Test [1] deals with T1, CD10 (human, UniProt P08473 2-750).
T1 construct: Endogenous CD10 of human cell lines: on Raji, RTX/Raji and Ramos cells in flow cytometry; In the ELISA it was a Triton X-100-dissolved membrane fraction of SBC-3 cells coated on the plate; also called CALLA; neutral endopeptidase
The test can be described thus: flow cytometry on Raji and RTX/Raji cells, FITC anti-mouse IgG secondary. As for the experimental part:
The supernatant liquid was removed, cell pellets were loosened and 10 μL of FcR blocking reagent (manufactured by Miltenyi Biotec) was added thereto. After the mixture was allowed to stand on ice for about 30 minutes, an FACS buffer was added thereto and washed by centrifugal separation (about 5000×g for 1 minutes at 4° C.) was repeated three times. An FACS buffer was added so as to give a cell density of 2×10⁷ cells/ml for suspension and each 50 μL thereof was aliquated into a tube. The FACS buffer (50 μL) was added to each tube to suspend and the primary antibody solution was added thereto in an amount of 2.5 μL per tube. With regard to the primary antibody solution, each of mouse anti-CD10 antibody NL-1 [Proc. Natl. Acad. Sci. USA, 79, 4386 (1982)], anti-CD20 antibody B1 (manufactured by Beckman Coulter), FITC-labeled anti-CD19 antibody J4.119 (manufactured by Beckman Coulter) and FITC-labeled anti-CD22 antibody SJ.10.1H11 (manufactured by Beckman Coulter) was used. […] It was filtered by a Nylon mesh and transferred to a test tube to prepare a sample to be measured. Expression of CD antigen on the cell surface was measured using a flow cytometer Epics Elite (manufactured by Beckman Coulter).

Test [2] has as its target T1, CD10. Briefly: ELISA on plate-coated membrane fraction of CD10-expressing SBC-3 cells. As for the experimental part: As to an antigen, a membrane fraction prepared from human lung small-cell tumor cell line SBC-3 cells (JCRB 0818) which highly express CD10 was used. The membrane fraction was suspended in 20 mM HEPES (pH 7.4) buffer containing 1 mM EDTA and 250 mM sucrose and cells were crushed using a homogenizer, then centrifugal separation was carried out at a low speed of 8,000×g so that granules in the cells and uncrushed cells were precipitated and removed and a centrifugal separation was carried out at a high speed of 80,000×g to separate the desired cell membrane. The separated membrane fraction was dissolved in PBS containing 0.1% of Triton-X 100 whereby protein was quantified, then made 10 μg/mL, dispensed at 50 μL/well into a 96-well plate for ELISA (manufactured by Gliner) and allowed to stand at 4° C. for one night for adsorption. After washing with PBS, 1% BSA-PBS was added in an amount of 100 μL/well and the reaction was carried out at room temperature for 1 hour to block the remaining active groups were blocked. […] After the reaction, each well was washed with Tween-PBS, a peroxidase-labeled goat anti-human IgG (H&L) antibody solution diluted 2,000-fold with 1% BSA-PBS was added as a secondary antibody solution in an amount of 50 μL/well and reaction was carried out at room temperature for 1 hour. After the reaction, washing was carried out with Tween-PBS, an ABTS substrate solution was added in an amount of 50 μL/well to develop color and OD415 was measured.
Background: ELISA stands for enzyme-linked immunosorbent assay.

T1 sequence (P08473 2-750 limits assumed): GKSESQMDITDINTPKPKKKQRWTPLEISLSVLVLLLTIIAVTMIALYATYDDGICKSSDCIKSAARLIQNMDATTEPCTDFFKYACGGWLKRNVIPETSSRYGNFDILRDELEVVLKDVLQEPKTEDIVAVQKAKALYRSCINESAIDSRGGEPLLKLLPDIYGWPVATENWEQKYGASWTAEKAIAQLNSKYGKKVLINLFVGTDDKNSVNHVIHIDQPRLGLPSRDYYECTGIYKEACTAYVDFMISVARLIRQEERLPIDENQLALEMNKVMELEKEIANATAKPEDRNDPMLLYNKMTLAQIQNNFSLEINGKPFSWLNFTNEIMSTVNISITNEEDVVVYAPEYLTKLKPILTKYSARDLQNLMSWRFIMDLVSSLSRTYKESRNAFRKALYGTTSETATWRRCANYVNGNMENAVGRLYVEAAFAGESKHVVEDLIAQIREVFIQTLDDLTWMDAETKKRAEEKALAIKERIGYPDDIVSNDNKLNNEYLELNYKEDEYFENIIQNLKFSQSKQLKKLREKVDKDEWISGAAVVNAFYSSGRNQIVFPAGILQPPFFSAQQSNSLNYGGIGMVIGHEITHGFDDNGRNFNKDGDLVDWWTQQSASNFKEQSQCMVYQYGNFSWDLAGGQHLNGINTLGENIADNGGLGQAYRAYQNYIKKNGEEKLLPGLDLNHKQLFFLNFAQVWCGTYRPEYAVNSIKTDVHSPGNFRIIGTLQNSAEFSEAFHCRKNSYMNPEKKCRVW

B1: mouse anti-CD10 antibody NL-1 (antibody, V domains shown)
VH: DVQLVESGGGLVQPGGSRKLSCAASGFTFSSFGMHWVRQAPEKGLEWVAYISGGSYTIYYADTVKGRFTISRDNPKNTLFLQMTSLRSEDTAMYYCASSYGNFWYFDVWGAGTTVTVSS
VL: EIVLTQSPALMAASPGEKVTIACSVSSSISSSNLHWYQQKSETSPKPWIYGTSNLASGVPVRFSGSGSGTSYFLTISSMEAEDAATYYCQQWSSYPLTFGGGTKLEIK
notes: Mouse hybridoma antibody; H chain cloned with a mouse Cgamma2a probe and L chain with a Ckappa probe; also called anti-CD10 mouse antibody NL-1
For B1, the binding result in the test with CD10 [1] is “binds”.

B2: anti-CD10 humanized antibody HV0LV9 MS705 (antibody, V domains shown)
VH: EVQLVESGGGVVQPGRSLRLSCAASGFTFSSFGMHWVRQAPGKGLEWVAYISGGSYTIYYADTVKGRFTISRDNSKNTLYLQMNSLRAEDTAVYYCARSYGNFWYFDVWGQGTTVTVSS
VL: DIVMTQSPDSLAVSLGERATIACSVSSSISSSNLHWYQQKPGQSPKPWIYGTSNLASGVPVRFSGSGSGTSYFLTISSLQAEDVATYYCQQWSSYPLTFGQGTKVEIKR
notes: also called HV0LV9 MS705 antibody; FERM BP-10099
Regarding B2, the binding result with CD10 [2] is listed as “binds”.

B3: anti-CD10 humanized antibody HV0LV0 MS705 (antibody, V domains shown)
VH: EVQLVESGGGVVQPGRSLRLSCAASGFTFSSFGMHWVRQAPGKGLEWVAYISGGSYTIYYADTVKGRFTISRDNSKNTLYLQMNSLRAEDTAVYYCARSYGNFWYFDVWGQGTTVTVSS
VL: DIVMTQSPDSLAVSLGERATINCSVSSSISSSNLHWYQQKPGQPPKLLIYGTSNLASGVPDRFSGSGSGTDFTLTISSLQAEDVAVYYCQQWSSYPLTFGQGTKVEIKR
notes: also called HV0LV0 MS705 antibody
Turning to B3, in the test with CD10 [2], the binding result was “binds”.

B4: anti-CD10 humanized antibody HV2LV9 MS705 (antibody, V domains shown)
VH: EVQLVESGGGVVQPGRSLRLSCAASGFTFSSFGMHWVRQAPEKGLEWVAYISGGSYTIYYADTVKGRFTISRDNSKNTLYLQMNSLRAEDTAVYYCASSYGNFWYFDVWGQGTTVTVSS
VL: DIVMTQSPDSLAVSLGERATIACSVSSSISSSNLHWYQQKPGQSPKPWIYGTSNLASGVPVRFSGSGSGTSYFLTISSLQAEDVATYYCQQWSSYPLTFGQGTKVEIKR
notes: also called HV2LV9 MS705 antibody
Consider B4, for which, in the test with CD10 [2], the binding result is “binds”.

The record behind these values is patent publication US20080118978A1 (published 2008).
